These are literature values, as cited in article PMC8979592.

For orientation: Kd means a measure of binding affinity in units of concentration.

The target of the data set is clathrin (UniProt Q00610).

On to clathrin (from UniProt Q00610), for which the Kd is 120 µM.
